Laboratory results from patent US20190016785A1 (HUMABS BIOMED, published 2019).

What was measured:
[1] = biological target: HBsAg of HBV genotype D (GenBank J02203, ayw3) (hepatitis B virus, genotype D, UniProt P03138 164-389); assay: flow cytometry, permeabilized transfected Hep2 cells, 5000 to 7 ng/ml
HBsAg P120T = HBsAg P120T (hepatitis B virus, genotype D, UniProt Q913A6 175-400); assay: flow cytometry, permeabilized transfected Hep2 cells, 5 µg/ml

Binder	binding result [1]	binding result (HBsAg P120T)
HBC34-V7 (antibody, V domains shown, also called variant 7; HMB34-V7) VH: ELQLVESGGGWVQPGGSQRLSCAASGRIFRSFYMSWVRQAPGKGLEWVATINQDGSEKLYVDSVKGRFTISRDNAKNSLFLQMNNLRVEDTAVYYCAAWSGNSGGMDVWGQGTTVSVSS VL: SYELTQPPSVSVSPGQTVSIPCSGDKLGNKNVCWFQHKPGQSPVLVIYEVKYRPSGIPERFSGSNSGNTATLTISGTQAMDEAAYFCQTFDSTTVVFGGGTRLTVL	binds	–
HBC34 (antibody, V domains shown, also called human monoclonal antibody HBC34; WT) VH: ELQLVESGGGWVQPGGSQRLSCAASGRIFRSFYMSWVRQAPGKGLEWVATINQDGSEKLYVDSVKGRFTISRDNAKNSLFLQMNNLRVEDTAVYYCAAWSGNSGGMDVWGQGTTVSVSS VL: SYELTQPPSVSVSPGQTVSIPCSGDKLGNKNVCWFQHKPGQSPVLVIYEVKYRPSGIPERFSGSNSGNTATLTISGTQAMDEAAYFCQTWDSTTVVFGGGTRLTVL	–	binds
